Positions count from the first letter of the chain named.
Key:
[1] = test system: T1, recombinant human proBMP-2 (wild type, produced by CHO-BMP-2 cells)
T1 sequence: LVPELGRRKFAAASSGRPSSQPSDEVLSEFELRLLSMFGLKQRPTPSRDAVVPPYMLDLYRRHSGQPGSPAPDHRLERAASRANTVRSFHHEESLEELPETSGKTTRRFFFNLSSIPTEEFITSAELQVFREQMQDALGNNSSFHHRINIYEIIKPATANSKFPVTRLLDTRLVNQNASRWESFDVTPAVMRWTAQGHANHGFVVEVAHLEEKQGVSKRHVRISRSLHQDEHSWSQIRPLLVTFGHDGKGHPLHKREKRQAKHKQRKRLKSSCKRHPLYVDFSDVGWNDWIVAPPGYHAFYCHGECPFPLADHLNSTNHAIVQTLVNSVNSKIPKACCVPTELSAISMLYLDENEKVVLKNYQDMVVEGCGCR

[2] = test system: T2, S1S2proBMP-2 (human proBMP-2 with S1 site REKR replaced by TNGIEGRALDP and S2 site RISR mutated to AISR; construct IND2372)
T2 sequence: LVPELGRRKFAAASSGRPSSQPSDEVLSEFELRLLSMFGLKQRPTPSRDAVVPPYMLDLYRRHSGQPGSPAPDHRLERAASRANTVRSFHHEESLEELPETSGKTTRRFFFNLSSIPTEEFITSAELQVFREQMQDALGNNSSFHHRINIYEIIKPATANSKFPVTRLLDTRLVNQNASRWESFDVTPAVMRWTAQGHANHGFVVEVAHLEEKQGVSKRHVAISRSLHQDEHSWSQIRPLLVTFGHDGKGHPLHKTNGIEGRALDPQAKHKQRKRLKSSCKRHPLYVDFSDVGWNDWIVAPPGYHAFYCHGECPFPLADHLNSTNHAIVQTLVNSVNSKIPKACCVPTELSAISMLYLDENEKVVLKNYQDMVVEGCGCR

[3] = test system: T3, S1proBMP-2 (human proBMP-2 with the S1 furin cleavage site REKR replaced by TNGIEGRALDP; constructs IND2340 and IND2341)
T3 sequence: T2 sequence with A222R

Substance | Western blot after in vitro digestion with furin [1] | Western blot after digestion with Factor Xa [2] | Western blot after digestion with Factor Xa [3]
furin (Sigma) | the purified CHO proBMP-2 monomers migrated at approximately 55 kDa were cleaved after 1 hr incubation with furin | – | –
Factor Xa (Restriction Protease Factor Xa Cleavage and Removal Kit, Roche Applied Science Cat #1 644 777) | – | Cleavage of mutant BMPs S1 proBMP and S1 S2proBMP-2 by Factor Xa produced a mature BMP-2 that remained a dimer under non-reducing conditions with an apparent molecular weight of 30-32 KD | Cleavage of mutant BMPs S1 proBMP and S1 S2proBMP-2 by Factor Xa produced a mature BMP-2 that remained a dimer under non-reducing conditions with an apparent molecular weight of 30-32 KD

Reference: patent US20100087625
